Data published in patent US8017829.

Tested on: Cre recombinase (bacteriophage P1?)
Assay: cell_activity
Settings: rice plant crosses; excision confirmed by Southern blot

Q: How did the activity (% GUS+ progeny (19/75)) turn out when lox site was run?
A: 25.3
